Laboratory results: US9193963B2, “Mutant endoglucanase” (Toray Industries, Inc., priority 2011, dated 2015)

B1: EGPa Wild-type: Pyrococcus abyssi-derived endoglucanase, SEQ ID NO: 25, parent endoglucanase (protein)
chain: MEIKLFCVFIVFIILFSPFVIALSYPDVNYTAENGIIFVQNVTTGEKKPLYLHGVSWFGFELKDHVVYGLDKRNWKDILKDVKRLGFNAIRLPFCSESIRPDTRPSPERINYELNPDLKNLTSLEIMEKIIEYANSIGLYILLDYHRIGCEEIEPLWYTENYSEEQYIKDWIFLAKRFGKYPNVIGADIKNEPHGEAGWGTGDERDFRLFAEKVGREILKVAPHWLIFVEGTQYTHVPNIDEIIEKKGWWTFWGENLMGVKDYPVRLPRGKVVYSPHVYGPSVYMMDYFKSPDFPNNMPIIWETHFGYLTDLNYTLVIGEWGGNYEGLDKVWQDAFVKWLIKKKIYNFFYWCLNPESGDTGGIFLDDWKTVNWEKMRVIYRLIKAANPEFEEPLYIILKTNATTSILGVGERIRIYWYTNGKVIDSNFAHSSEGEMNITVTKSMTLYIIVKKGNQTLRKELKLYVIGGNYGSNISTTQLVTPKKGGERISTSLKLAISLLFILLFVWYLLREKH
modifications: Pyrococcus abyssi EGPa
B2: EGPa Mutant: mutant EGPa, SEQ ID NO: 26; residue corresponding to 273rd tryptophan substituted with alanine (protein)
chain: MEIKLFCVFIVFIILFSPFVIALSYPDVNYTAENGIIFVQNVTTGEKKPLYLHGVSWFGFELKDHVVYGLDKRNWKDILKDVKRLGFNAIRLPFCSESIRPDTRPSPERINYELNPDLKNLTSLEIMEKIIEYANSIGLYILLDYHRIGCEEIEPLWYTENYSEEQYIKDWIFLAKRFGKYPNVIGADIKNEPHGEAGWGTGDERDFRLFAEKVGREILKVAPHWLIFVEGTQYTHVPNIDEIIEKKGWWTFAGENLMGVKDYPVRLPRGKVVYSPHVYGPSVYMMDYFKSPDFPNNMPIIWETHFGYLTDLNYTLVIGEWGGNYEGLDKVWQDAFVKWLIKKKIYNFFYWCLNPESGDTGGIFLDDWKTVNWEKMRVIYRLIKAANPEFEEPLYIILKTNATTSILGVGERIRIYWYTNGKVIDSNFAHSSEGEMNITVTKSMTLYIIVKKGNQTLRKELKLYVIGGNYGSNISTTQLVTPKKGGERISTSLKLAISLLFILLFVWYLLREKH
modifications: Pyrococcus abyssi EGPa W253A
notes: residue corresponding to 273rd tryptophan substituted with alanine
B3: EGAc Wild-type: Acidthermus cellulolyticus-derived endoglucanase, SEQ ID NO: 31, parent endoglucanase (protein)
chain: MPRALRRVPGSRVMLRVGVVVAVLALVAALANLAVPRPARAAGGGYWHTSGREILDANNVPVRIAGINWFGFETCNYVVHGLWSRDYRSMLDQIKSLGYNTIRLPYSDDILKPGTMPNSINFYQMNQDLQGLTSLQVMDKIVAYAGQIGLRIILDRHRPDCSGQSALWYTSSVSEATWISDLQALAQRYKGNPTVVGFDLHNEPHDPACWGCGDPSIDWRLAAERAGNAVLSVNPNLLIFVEGVQSYNGDSYWWGGNLQGAGQYPVVLNVPNRLVYSAHDYATSVYPQTWFSDPTFPNNMPGIWNKNWGYLFNQNIAPVWLGEFGTTLQSTTDQTWLKTLVQYLRPTAQYGADSFQWTFWSWNPDSGDTGGILKDDWQTVDTVKDGYLAPIKSSIFDPVGASASPSSQPSPSVSPSPSPSPSASRTPTPTPTPTASPTPTLTPTATPTPTASPTPSPTAASGARCTASYQVNSDWGNGFTVTVAVTNSGSVATKTWTVSWTFGGNQTITNSWNAAVTQNGQSVTARNMSYNNVIQPGQNTTFGFQASYTGSNAAPTVACAAS
modifications: Acidthermus cellulolyticus EGAc

What was measured:
[1] = Activity to degrade phosphoric acid swollen cellulose; format: biochemical; settings: 1% phosphoric acid swollen cellulose, pH 5.2, enzyme 0.5 μM, 1 hour, 50° C.; glucose generated by each parent endoglucanase = 100%
Description: The term “identity” refers to the percentage of amino acid residues identical to and amino acid residues analogous to the other amino acid residues in all the amino acid residues overlapped when an optimum alignment is performed by introducing gaps or no gaps into two amino acid sequences and then aligning the two amino acid sequences. Such an identity can be found using a method known by persons skilled in the art, sequence analysis software, and the like (a known algorithm such as BLAST or FASTA). The term “endoglucanase activity” is as defined above and can be determined by adding an enzyme solution to a substrate solution of phosphoric acid swollen cellulose that has been dissolved in 50 mM acetic acid-sodium acetate buffer (pH 5.2) or the like, performing 1 hour of reaction at 30° C. to 85° C., stopping the reaction by changing the pH if necessary, and then determining the concentration of glucose in the reaction solution using a glucose determination kit, for example.
The mutants obtained in Comparative Example 1 were compared in terms of activity by a technique similar to that in Example 3. The concentration (g/L) of glucose generated by each parent endoglucanase under the above reaction conditions was determined to be 100%.

[2] = Inhibition experiment with vanillin: degradation of phosphoric acid swollen cellulose; format: biochemical; settings: enzyme 0.5 μM, 1 hour, 50° C., parent at 0 mM = 100%
Description: (§6) This substance was diluted using buffer and water to obtain a 2 wt % mixture so that the final concentration of sodium acetate was 50 mM (pH 5.2). This was designated as phosphoric acid swollen cellulose and used for the following examples.
The activity of the wild-type and the mutant endoglucanases to degrade phosphoric acid swollen cellulose in the presence of vanillin was measured. 1% phosphoric acid swollen cellulose/50 mM acetate buffer (pH 5.2) was used as a substrate. Vanillin (Sigma Aldrich) was added at final concentrations of 0, 5, 10, and 15 mM. The enzymes prepared in Reference Example 1 and Example 2 were added at a final concentration of 0.5 μM, followed by 1 hour of enzymatic reaction at 50° C.

[3] = Saccharification of lignocellulose 1 with Celluclast and endoglucanase; format: biochemical, Rice straw; settings: 5 wt % Lignocellulose 1, pH 5.2, 50° C., 24 hours; 1.0 mg/mL cellulase + 0.1 mg/mL endoglucanase
Description: (§1) Rice straw was used as cellulose. The cellulose was added to a small reactor (Taiatsu Techno Corporation, TVS-N2 (30 ml)), and then cooled with liquid nitrogen. An ammonia gas was fed to the reactor, thereby completely immersing the sample in the liquid ammonia. The reactor was closed using its lid, and then left to stand at room temperature for 15 minutes. Subsequently, treatment was performed for 1 hour in an oil bath at 150° C. After treatment, the reactor was removed from the oil bath, an ammonia gas leak was immediately performed within a draft chamber. The reactor was vacuumed using a vacuum pump to 10 Pa for drying. The resultant was used as lignocellulose 1 in the following examples.
(§2) The changes in the amount of glucose generated when the enzyme composition had been caused to act on lignocellulose substrates were compared. The substrates were prepared by suspending 5 wt % lignocelluloses (1 to 3) (prepared in Reference Example 3) in 50 mM acetate buffer (pH5.2). Reactions were performed at 50° C. for 24 hours. The concentrations of the generated glucose were measured after adequate sampling. As a filamentous bacterium-derived cellulase mixture, commercially available Trichoderma reesei-derived cellulase (Celluclast, Sigma) was used. As endoglucanases, the mutant endoglucanases prepared in Example 2 and the wild-type endoglucanases prepared in Reference Example 1 were separately used. The following quantities of enzymes were added: 1.0 mg/mL cellulase, and 0.1 mg/mL endoglucanase (in an amount one tenth that of the cellulase).

[4] = Saccharification of lignocellulose 2 with Trichoderma reesei culture solution and endoglucanase; format: biochemical, Rice straw; settings: Lignocellulose 2, 24 hours; cellulase 1.0 mg/mL + endoglucanase 0.1 mg/mL + β-glucosidase (Novozyme 188) 0.01 mg/mL
Description: (§3) Rice straw was used as cellulose. Cellulose was immersed in a 1% aqueous sulfuric acid solution, and then autoclaved for 30 minutes at 150° C. (Nitto Koatsu Co. Ltd.). After treatment, the resultant was subjected to solid-liquid separation into an aqueous sulfuric acid solution (hereinafter, referred to as “dilute-sulfuric-acid-treated solution”) and cellulose treated with sulfuric acid. Next, the cellulose treated with sulfuric acid was mixed and agitated with the dilute-sulfuric-acid-treated solution so that the solid content concentration was 10 wt %. Then the mixture was adjusted to around pH 5 using sodium hydroxide. The resultant was used as lignocellulose 2 for the following examples.
as §2
(§4) Lignocelluloses (1-3) prepared in Reference Example 3 were used as substrates. The Trichoderma reesei culture solution prepared in Reference Example 4 was used as a filamentous bacterium-derived cellulase mixture. Lignocelluloses (1-3) were hydrolyzed in a manner similar to that in Example 7, except for the quantities of the enzymes added: cellulase (1.0 mg/mL); endoglucanase (0.1 mg/mL (in an amount one tenth that of the cellulase); and β-glucosidase (Novozyme 188) (0.01 mg/mL (in an amount one hundredth that of the cellulase).

[5] = Saccharification of lignocellulose 3 with Celluclast and endoglucanase; format: biochemical, Rice straw; settings: 5 wt % Lignocellulose 3, pH 5.2, 50° C., 24 hours; 1.0 mg/mL cellulase + 0.1 mg/mL endoglucanase
Description: (§5) Rice straw was used as cellulose. The cellulose was immersed in water, and then autoclaved with agitation at 180° C. for 20 minutes (Nitto Koatsu Co. Ltd.). Pressure at this time was 10 MPa. After treatment, a solution component (hereinafter, referred to as “hydrothermally treated solution”) and the treated biomass component were subjected to solid-liquid separation by centrifugation (3000 G). The thus treated biomass component was used as lignocellulose 3 for the following examples.
as §2

[6] = Inhibition experiment with ferulic acid: degradation of phosphoric acid swollen cellulose; format: biochemical; settings: enzyme 0.5 μM, 1 hour, 50° C., parent at 0 mM = 100%
Description: as §6
The activity of the wild-type and the mutant endoglucanases to degrade phosphoric acid swollen cellulose was measured in the presence of ferulic acid. 1% phosphoric acid swollen cellulose/50 mM acetate buffer (pH 5.2) was used as a substrate. Ferulic acid (Sigma Aldrich) was added at final concentrations of 0, 5, 10, and 15 mM. The enzymes prepared in Reference Example 1 and Example 2 were each added at a final concentration of 0.5 μM, followed by 1 hour of enzymatic reaction at 50° C.

[7] = Saccharification of lignocellulose 3 with Trichoderma reesei culture solution and endoglucanase; format: biochemical, Rice straw; settings: Lignocellulose 3, 24 hours; cellulase 1.0 mg/mL + endoglucanase 0.1 mg/mL + β-glucosidase (Novozyme 188) 0.01 mg/mL
Description: as §5, §2, §4

[8] = Saccharification of lignocellulose 2 with Celluclast and endoglucanase; format: biochemical, Rice straw; settings: 5 wt % Lignocellulose 2, pH 5.2, 50° C., 24 hours; 1.0 mg/mL cellulase + 0.1 mg/mL endoglucanase
Description: as §3, §2

[9] = Saccharification of lignocellulose 1 with Trichoderma reesei culture solution and endoglucanase; format: biochemical, Rice straw; settings: Lignocellulose 1, 24 hours; cellulase 1.0 mg/mL + endoglucanase 0.1 mg/mL + β-glucosidase (Novozyme 188) 0.01 mg/mL
Description: as §1, §2, §4

Molecule	Relative activity [1]	Relative activity to degrade phosphoric acid swollen cellulose ([2]; vanillin 0 mM)	Relative activity to degrade phosphoric acid swollen cellulose ([2]; vanillin 5 mM)	Relative activity to degrade phosphoric acid swollen cellulose ([2]; vanillin 10 mM)	Relative activity to degrade phosphoric acid swollen cellulose ([2]; vanillin 15 mM)	Concentration of glucose generated, Celluclast + Wild-type [3]	Concentration of glucose generated, Culture solution + Wild-type [4]	Concentration of glucose generated, Celluclast + Wild-type [5]	Relative activity to degrade phosphoric acid swollen cellulose ([6]; ferulic acid 0 mM)	Relative activity to degrade phosphoric acid swollen cellulose ([6]; ferulic acid 5 mM)	Relative activity to degrade phosphoric acid swollen cellulose ([6]; ferulic acid 10 mM)	Relative activity to degrade phosphoric acid swollen cellulose ([6]; ferulic acid 15 mM)	Concentration of glucose generated, Culture solution + Wild-type [7]	Concentration of glucose generated, Celluclast + Wild-type [8]	Concentration of glucose generated, Culture solution + Wild-type [9]	also measured
B1	100%	100%	40%	40%	40%	12 g/L	9 g/L	11 g/L	100%	60%	50%	50%	8 g/L	12 g/L	9 g/L	
B2	100%	100%	90%	90%	90%				100%	95%	90%	90%				Concentration of glucose generated, Celluclast + Mutant [3]: 14 g/L; Concentration of glucose generated, Culture solution + Mutant [4]: 13 g/L; Concentration of glucose generated, Celluclast + Mutant [5]: 15 g/L; Concentration of glucose generated, Culture solution + Mutant [7]: 12 g/L; Concentration of glucose generated, Celluclast + Mutant [8]: 16 g/L; Concentration of glucose generated, Culture solution + Mutant [9]: 11 g/L
B3	100%	100%	50%	45%	40%	11 g/L	8 g/L	11 g/L	100%	65%	60%	55%	8 g/L	11 g/L	8 g/L	
